{
  "source": "patent US20240350646A1",
  "about": "“METHODS AND COMPOSITIONS FOR DELIVERY TO AND ACROSS THE BLOOD BRAIN BARRIER” (NUtech Ventures, priority 2021, published 2024)",
  "molecules": {"B1": {"name": "C1C2-NP (C1C2 peptide conjugated to PEG diacid coated ultrasmall Gd nanoparticles) (peptide)", "peptide": "Ac-SSVSQSTGQIQSKVDSLLNLNSTQATR-NH2", "modifications": "not fully specified; also: conjugated by EDC-NHS chemistry to PEG diacid on Gd oxide nanoparticle surface (19 peptides per 3.5 nm particle)", "notes": "The protein part is the C1C2 peptide; the core is not a protein; also called C1C2-NPs; C1C2 NPs"}},
  "key": {"[1]": {"experiment": "K^trans DCE-MRI: brain region accumulation and retention of NPs", "format": "in vivo, C57BL/6J mice", "conditions": "for K^trans, corpus callosum (CC): 100 μL of 0.5 mM NP via tail vein", "protocol": "Both male and female young (6-8 weeks) C57BL/6J mice (Jackson Laboratory, Bar Harbor, ME) and middle aged (12 months) C57BL/6J and CX3CR1-GFP (Jackson Laboratory, Bar Harbor, ME) from a C57BL/6J background mice were used. Mice were housed in a 12 h/12 h day/night cycle with ad libitum access to standard mouse chow and water. All animal work was approved by and performed under the guidance of the University of Nebraska-Lincoln IACUC.\nIn vivo NP assessment consisted of dynamic contrast-enhanced (DCE)-MRI using a 9.4T MRI system (Varian) to compare targeting agent effect on the uptake as previously described (Miller et al., 2019, Scientific Reports, 9:16099). Briefly, mice were induced with about 2% isoflurane gas and maintained at a concentration sufficient to achieve 50 to 80 breaths per minute. Baseline T1 maps were generated using a gradient-echo sequence and the variable flip angle method with two angles, 10° and 30° (Deoni et al., 2003, Magn. Reson. Med., 49:515-26). Mice were injected with 100 μL of a 0.5 mM NP solution via tail vein catheter followed by 100 μL PBS to flush all remaining NP solution. A flip angle of 30° was used for all post-contrast scans, which occurred for 1 h following injection. TR was between 54 and 84 ms, TE between 2.73 and 4.24 ms, matrix size between 128×128 and 256×256, FOV between 20×20×10 mm^3 and 25×25×10 mm^3 depending on the experiment. NEX varied with matrix size to maintain temporal resolution, with 128×128, NEX=5 for all scans, with 256×256, NEX=4 for baseline and 1 for post-contrast scans.\nFollowing serial image acquisition, resulting in about 100 post-contrast scans per animal, R1, concentration, and K^trans mapping were performed using custom MATLAB script. R1 mapping was performed using the variable flip angle method based on the following equation (Deoni et al., 2005, Magn. Reson. Med., 53:237-41: […]\nwhere SSPGR is signal intensity, α is FA, E1 is […], and M0 is a proportionality factor related to longitudinal magnetization. E1 describes the linear relationship between the two signal intensity ratios, taking the slope, m, of that line enables calculation of T1 as:\nConcentration maps were then generated by comparison of baseline R1 maps with post-contrast R1 maps using the following equation: […]\nwhere C(t) is the concentration at time t, R1(t) is the post contrast R1-value at t, RT(t0) is baseline R1, and r1 is relaxivity of the contrast agent. K^trans, the contrast extravasation rate constant, mapping was then performed using a reference region (RR) model derived from the extended Tofts' model (Tofts et al., 1999, J. Magn. Reson. Imaging, 10:223-232):\nwhere CTOI and CRR are concentrations in the tissue of interest (TOI) and the RR, respectively, K^trans,TOI and K^trans, RR are K^trans in the TOI and RR, respectively, and ve,TOI and ve,RR are extravascular-extracellular volume fractions for the TOI and RR, respectively. Muscle tissue from within the FOV was used in all animals as the RR. MATLAB was used to execute a least squares curve fitting routine to calculate K^trans for each voxel in the brain."}, "human claudin-3 [2]": {"biological_target": "T1, human claudin-3 (human, UniProt O15551 1-220, limits assumed)", "T1 sequence (looked up)": "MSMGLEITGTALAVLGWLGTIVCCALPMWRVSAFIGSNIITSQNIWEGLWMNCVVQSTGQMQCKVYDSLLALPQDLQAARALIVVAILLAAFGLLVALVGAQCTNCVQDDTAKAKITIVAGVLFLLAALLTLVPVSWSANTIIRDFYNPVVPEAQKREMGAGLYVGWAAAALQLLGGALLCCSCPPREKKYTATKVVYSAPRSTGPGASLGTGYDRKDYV", "experiment": "MST, sigmoidal dose-response fit (GraphPad Prism) of the FIG. 10A data; fit without amplitude, confidence interval undefined [panel B]", "protocol": "(§1) FIG. 10A is a graph showing binding of human claudins 3, 4 and 9 to C1C2-NPs using microscale thermophoresis. […] FIG. 10C is a graph showing the binding of human claudins 4 and 9 to control NPs monitored using microscale thermophoresis. […] Data fitting for human claudins 3, 4 and 9 were performed using Graph Pad Prism.\n(§2) Human claudin-1 was expressed and purified as reported previously (Vecchio & Stroud, 2019, PNAS USA, 116:17817-24). MST measurements were performed using a Monolith instrument (NanoTemper Technologies). For experiments with human claudin-1, the assay buffer contained 10 mM Tris HCl, pH 8.0, 100 mM NaCl, 4% glycerol, and 0.04% n-Dodecyl-β-D-Maltopyranoside (β-DDM). NPs and peptides were labeled with AF647 prior to MST analysis as described above. For the binding experiments, the concentration of human claudin-1 was varied from 2.2-73,500 nM and the AF647-labeled C1C2-NP was fixed at 70 nM, while the AF647 labeled NPs and AF647 labeled C1C2 peptide were fixed at 1 and 0.3 μM, respectively. Binding of the AF647 labeled C1C2-NP to human claudin-3, -4, and -9 were tested using 0.4-14000 nM, 0.8-28000 nM, and 0.6-20000 nM, respectively; with the AF647 labeled C1C2-NP fixed at 70 nM. This assay buffer was similar, except β-DDM was replaced with 0.1% n-Undecyl-β-D-Maltopyranoside (beta-UDM)."}, "human claudin-9": {"biological_target": "T2, human claudin-9 (human, UniProt O95484 1-217, limits assumed)", "T2 sequence (looked up)": "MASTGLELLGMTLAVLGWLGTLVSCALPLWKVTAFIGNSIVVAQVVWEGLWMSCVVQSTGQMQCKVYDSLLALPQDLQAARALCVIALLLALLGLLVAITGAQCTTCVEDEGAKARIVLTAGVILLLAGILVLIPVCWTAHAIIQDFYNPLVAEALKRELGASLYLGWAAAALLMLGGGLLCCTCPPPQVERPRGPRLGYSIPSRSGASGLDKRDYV", "experiment": "MST, sigmoidal dose-response fit (GraphPad Prism) of the FIG. 10A data, M is the unit of the concentration axis of panel A; fit did not converge [panel B]", "protocol": "as §1, §2"}, "human claudin-3 [3]": {"biological_target": "T1, human claudin-3", "experiment": "MST, sigmoidal dose-response fit (GraphPad Prism) of the FIG. 10A data, M is the unit of the concentration axis of panel A; fit without amplitude, confidence interval undefined [panel B]", "protocol": "as §1, §2"}, "[4]": {"conditions": "old (1-year-old) mice, listed as C1C2-NPs"}},
  "data": [
    {"molecule": "C1C2-NP: PEG diacid coated ultrasmall Gd NP conjugated with C1C2 peptide SSVSQSTGQIQSKVDSLLNLNSTQATR (SEQ ID NO: 6); claudin-1 targeted (Ac-SSVSQSTGQIQSKVDSLLNLNSTQATR-NH2; also: conjugated to PEG diacid coated ultrasmall Gd nanoparticle)", "values": [
      {"measurement": "K^trans, cortex (CTX)", "setting": "[1]; old (1-year-old) mice", "result": 0.0148, "unit": "min⁻¹"},
      {"measurement": "K^trans, hippocampus (HC)", "setting": "[1]; old (1-year-old) mice", "result": 0.0040, "unit": "min⁻¹"},
      {"measurement": "K^trans, hypothalamus (HT)", "setting": "[1]; old (1-year-old) mice", "result": 0.0102, "unit": "min⁻¹"},
      {"measurement": "K^trans, muscle", "setting": "[1]; old (1-year-old) mice", "result": 0.0057, "unit": "min⁻¹"},
      {"measurement": "K^trans, corpus callosum (CC)", "setting": "[1]; old (1-year-old) mice", "result": 0.0058, "unit": "min⁻¹"},
      {"measurement": "K^trans, corpus callosum (CC)", "setting": "[1]; [4]", "result": 0.0058, "unit": "min⁻¹"},
      {"measurement": "K^trans, cortex (CTX)", "setting": "[1]; [4]", "result": 0.0145, "unit": "min⁻¹"},
      {"measurement": "K^trans, hippocampus (HC)", "setting": "[1]; [4]", "result": 0.0040, "unit": "min⁻¹"},
      {"measurement": "K^trans, hypothalamus (HT)", "setting": "[1]; [4]", "result": 0.0134, "unit": "min⁻¹"},
      {"measurement": "K^trans, cortex (CTX)", "setting": "[1]; young mice", "result": 0.0022, "unit": "min⁻¹"},
      {"measurement": "K^trans, hippocampus (HC)", "setting": "[1]; young mice", "result": 0.0019, "unit": "min⁻¹"},
      {"measurement": "K^trans, hypothalamus (HT)", "setting": "[1]; young mice", "result": 0.0026, "unit": "min⁻¹"},
      {"measurement": "K^trans, muscle", "setting": "[1]; young mice", "result": 0.0028, "unit": "min⁻¹"},
      {"measurement": "K^trans, corpus callosum (CC)", "setting": "[1]; young mice", "result": 0.0019, "unit": "min⁻¹"}
    ]},
    {"molecule": "B1", "values": [
      {"measurement": "LogEC50", "setting": "human claudin-3 [2]", "result": -7.05},
      {"measurement": "EC50", "setting": "human claudin-9", "result": 218, "unit": "mM"},
      {"measurement": "EC50", "setting": "human claudin-3 [3]", "result": 88.1, "unit": "nM"}
    ]}
  ]
}
